Experiments:
[1] = biological target: biotin-CCR4 peptide conjugate (human); assay: ECL (MSD) bridging assay, biotin-CCR4 peptide on a streptavidin plate, His-CD16a detection; 0% PHS (assay buffer)
[2] = biological target: biotin-CCR4 peptide conjugate (human); assay: ECL (MSD) bridging assay, biotin-CCR4 peptide on a streptavidin plate, His-CD16a detection; 5% pooled human serum
[3] = biological target: biotin-CCR4 peptide conjugate (human); assay: ECL (MSD) bridging assay, biotin-CCR4 peptide on a streptavidin plate, His-CD16a detection; 20% pooled human serum

Chain of biotin-CCR4 peptide conjugate (human) (peptide, as listed by the source): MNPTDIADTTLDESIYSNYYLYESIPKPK

- EC50 (read off the curve) [1]: 0.4 µg/mL
- EC50 (read off the curve) [2]: 0.4 µg/mL
- EC50 (read off the curve) [3]: 0.4 µg/mL
Substance: KW-0761 (antibody)

— patent US20140072983A1
